Residue numbers refer to the chain shown, from its start.
Key:
[1] = biological target: T1, CTLA4-Fc (human, UniProt P16410 36-161, limits assumed); assay: ELISA: modified antibody (concentration on the axis) captured on SIRPa-His, then CTLA4-Fc, detected with mouse anti-human CTLA4 [panel CD80]
T1 construct: not shown: Fc; not specified

[2] = biological target: T2, recombinant hSIRPa (Sino Biologicals, reference 11612-H08H) (human, UniProt P78324 31-370); assay: ELISA on immobilized SIRPa-His, peroxidase anti-human IgG, DO 450nm [panel CD80]
T2 construct: also called SIRPa-His; human SIRPa-His; not shown: His tag (histidine tail)
Procedure: (§1) Method: For ELISA assay, recombinant hSIRPa (Sino Biologicals, Beijing, China; reference 11612-H08H) was immobilized on plastic at 0.5 μg/ml in carbonate buffer (pH9.2) and different modified anti-SIRPa antibodies were added to measure binding to SIRPa.

[3] = biological target: T2, recombinant hSIRPa (Sino Biologicals, …); assay: ELISA on immobilized hSIRPa-His, anti-human IgG detection, second experiment
Procedure: (§2) Method: The binding activity of the anti-SIRPa antibodies was assessed by ELISA.

[4] = biological target: T2, recombinant hSIRPa (Sino Biologicals, …); assay: ELISA on immobilized hSIRPa-His, anti-human IgG detection, first experiment; first experiment
Procedure: as §2

[5] = biological target: T2, recombinant hSIRPa (Sino Biologicals, …); assay: SPR (Biacore); SIRPa-His immobilized on CM5 chip, antibody injected
Procedure: FIG. 2. Affinity analysis by Biacore of anti-SIRP antibodies on human SIRPa recombinant protein. SIRPa-His recombinant protein was immobilized onto a CM5 chip at 5 μg/ml (500 RU) and the indicated antibodies were added at different concentration.
Method: Recombinant hSIRPa (Sino Biologicals, Beijing, China; reference 11612-H08H) was immobilized into a CM5 sensor chip (GeHealthcare; France) at 5 μg/ml (500 RU) and antibodies were applied at different concentrations with a flow rate of 40 μl/min. Analysis was performed with a BIAcore 3000 (Biacore, GeHealthcare).

[6] = biological target: T3, recombinant hSIRPb-His (Antibodies-online, reference ABIN3077231) (human, UniProt Q5TFQ8 30-371); assay: BLI (Blitz); SIRPb-His on Ni-NTA biosensor, antibody at 20 ug/ml [B, table A]
T3 construct: also called SIRPb-His (Blitz); not shown: His tag
Procedure: FIG. 7. (A) Affinity analysis by Blitz of anti-SIRP antibodies on human SIRPb recombinant protein. SIRPb-His recombinant protein was immobilized onto a NINTA biosensor and the indicated antibodies were added at 20 μg/ml. […] (B) Binding analysis of anti-SIRP antibodies (human SIRPb-His coating and anti-human kappa detection).
(§3) Method: This method was performed with a Blitz (Forte Bio; USA; reference C22-2 No 61010-1). Recombinant hSIRPb-His (Antibodies-online; USA; reference ABIN3077231) was immobilized at 10 μg/ml by histidine tail into a Ni-NTA biosensor (Forte Bio; USA; reference 18-0029) for 30 seconds. Then, an anti-SIRPa antibody was associated at 20 μg/mL for 120 seconds. The dissociation of anti-SIRPa antibody was made in kinetics buffer for 120 seconds. Analysis of data was made with the Blitz pro 1.2 software, which calculated association constant (ka) and dissociation constant (kd) and determined the affinity constant KD […].

[7] = biological target: T4, recombinant hSIRPg-His (Sino Biologicals, reference 11828-H08H) (human, UniProt Q9P1W8 29-360); assay: BLI (Blitz); SIRPg-His on Ni-NTA biosensor, antibody at 10 ug/ml or 20 ug/ml (Example 9) [B, table A]
T4 construct: also called human SIRPg-His; not shown: His tag
Procedure: FIG. 8. (A) Affinity analysis by Blitz of anti-SIRP antibodies on human SIRPg recombinant protein. SIRPg-His recombinant protein was immobilized onto a NINTA biosensor and the indicated antibodies were added at 10 μg/ml. […] (B) Binding analysis by ELISA assay of anti-SIRP antibodies on SIRPg (human SIRPg-His coating and anti-human kappa detection).
as §3, with “hSIRPg-His (Sino Biologicals, Beijing, China;” for “hSIRPb-His (Antibodies-online; USA;”, “11828-H08H)” for “ABIN3077231)”

[8] = biological target: T2, recombinant hSIRPa (Sino Biologicals, …); assay: competition ELISA on immobilized SIRPa-His; competitor biotinylated CD47-Fc at 6 ug/ml, streptavidin-peroxidase [second experiment table]
Procedure: Method: For competitive ELISA assay, recombinant hSIRPa (Sino Biologicals, Beijing, China; reference 11612-H08H) was immobilized on plastic at 0.5 μg/ml in carbonate buffer (pH9.2).

[9] = biological target: T2, recombinant hSIRPa (Sino Biologicals, …); assay: ELISA on immobilized hSIRPa-His, anti-human IgG detection, third experiment
Procedure: as §2

[10] = biological target: T5, OX40Fc (human, UniProt P43489 29-216); assay: ELISA: modified antibody (concentration on the axis) captured on SIRPa-His, then OX40Fc, detected with mouse anti-human OX40 [panel OX40L]
T5 construct: not shown: Fc; not specified
T5 sequence (looked up): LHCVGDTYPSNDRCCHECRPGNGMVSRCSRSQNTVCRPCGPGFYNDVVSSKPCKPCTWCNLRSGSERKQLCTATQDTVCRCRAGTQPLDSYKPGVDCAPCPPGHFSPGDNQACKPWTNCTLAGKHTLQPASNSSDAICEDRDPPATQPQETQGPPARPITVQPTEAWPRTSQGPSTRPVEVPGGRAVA
Description: FIG. 24. Ligand binding assay with the different modified anti-SIRPa antibodies by ELISA.

[11] = biological target: T2, recombinant hSIRPa (Sino Biologicals, …); assay: ELISA on immobilized SIRPa-His, peroxidase anti-human IgG, DO 450nm [panel OX40L]
Procedure: as §1

T2 sequence (P78324 31-370 limits assumed): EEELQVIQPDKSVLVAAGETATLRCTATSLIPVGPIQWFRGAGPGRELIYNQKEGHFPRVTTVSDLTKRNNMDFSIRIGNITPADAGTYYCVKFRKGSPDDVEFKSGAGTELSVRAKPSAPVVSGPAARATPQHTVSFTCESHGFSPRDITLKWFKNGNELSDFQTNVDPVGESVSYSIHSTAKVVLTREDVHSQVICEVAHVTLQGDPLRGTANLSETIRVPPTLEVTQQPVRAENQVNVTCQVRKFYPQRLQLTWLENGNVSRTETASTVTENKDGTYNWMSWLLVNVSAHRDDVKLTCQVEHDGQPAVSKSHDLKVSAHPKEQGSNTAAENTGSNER
T4 sequence (Q9P1W8 29-360 limits assumed): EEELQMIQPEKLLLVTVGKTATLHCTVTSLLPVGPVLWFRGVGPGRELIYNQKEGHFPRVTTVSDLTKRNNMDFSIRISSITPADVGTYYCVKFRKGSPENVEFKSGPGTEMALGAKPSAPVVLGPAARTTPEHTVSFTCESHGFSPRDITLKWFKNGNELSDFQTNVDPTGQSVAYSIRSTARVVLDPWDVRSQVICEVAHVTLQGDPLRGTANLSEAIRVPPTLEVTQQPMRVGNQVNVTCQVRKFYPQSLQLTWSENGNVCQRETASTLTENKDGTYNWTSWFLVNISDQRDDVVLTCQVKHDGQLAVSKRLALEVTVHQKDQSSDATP
T3 sequence (Q5TFQ8 30-371): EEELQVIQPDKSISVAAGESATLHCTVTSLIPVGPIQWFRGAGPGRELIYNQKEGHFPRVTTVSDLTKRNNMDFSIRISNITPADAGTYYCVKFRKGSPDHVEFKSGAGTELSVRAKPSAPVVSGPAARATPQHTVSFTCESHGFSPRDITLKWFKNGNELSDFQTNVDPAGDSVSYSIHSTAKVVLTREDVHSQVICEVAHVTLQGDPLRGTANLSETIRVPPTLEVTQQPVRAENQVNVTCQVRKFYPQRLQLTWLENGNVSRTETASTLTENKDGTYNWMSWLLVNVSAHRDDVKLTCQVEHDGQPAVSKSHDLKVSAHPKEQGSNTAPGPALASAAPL
T1 sequence (P16410 36-161 limits assumed): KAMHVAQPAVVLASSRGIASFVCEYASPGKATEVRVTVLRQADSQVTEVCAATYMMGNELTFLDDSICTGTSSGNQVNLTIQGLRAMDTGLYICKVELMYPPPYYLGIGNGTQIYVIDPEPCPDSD

B1: modified anti-SIRPa HEFLB antibody with ECD of CD80 on the light chain (antibody, human IgG4 S228P, kappa)
heavy: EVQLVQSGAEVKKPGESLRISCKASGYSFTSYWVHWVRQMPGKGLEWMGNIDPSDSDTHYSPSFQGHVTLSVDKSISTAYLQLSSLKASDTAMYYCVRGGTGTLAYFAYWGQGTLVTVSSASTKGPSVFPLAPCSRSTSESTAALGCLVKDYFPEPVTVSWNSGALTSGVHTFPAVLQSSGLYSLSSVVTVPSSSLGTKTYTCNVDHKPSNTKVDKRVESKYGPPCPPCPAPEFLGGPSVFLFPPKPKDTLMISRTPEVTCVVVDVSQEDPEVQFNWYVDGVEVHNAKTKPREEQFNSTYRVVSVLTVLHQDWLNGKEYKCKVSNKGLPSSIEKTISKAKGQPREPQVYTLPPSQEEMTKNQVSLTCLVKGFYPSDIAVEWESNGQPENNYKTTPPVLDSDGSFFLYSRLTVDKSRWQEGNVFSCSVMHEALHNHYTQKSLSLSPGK
light: DVVMTQSPLSLPVTLGQPASISCRSSQSLVHSYGNTYLYWFQQRPGQSPRLLIYRVSNRFSGVPDRFSGSGSGTDFTLKISRVEAEDVGVYYCFQGTHVPYTFGGGTKVEIKRTVAAPSVFIFPPSDEQLKSGTASVVCLLNNFYPREAKVQWKVDNALQSGNSQESVTEQDSKDSTYSLSSTLTLSKADYEKHKVYACEVTHQGLSSPVTKSFNRGECGGGGSGGGGSGGGGSVIHVTKEVKEVATLSCGHNVSVEELAQTRIYWQKEKKMVLTMMSGDMNIWPEYKNRTIFDITNNLSIVILALRPSDEGTYECVVLKYEKDAFKREHLAEVTLSVKADFPTPSISDFEIPTSNIRRIICSTSGGFPEPHLSWLENGEELNAINTTVSQDPETELYAVSSKLDFNMTTNHSFMCLIKYGHLRVNQTFNWNTTKQEHFPDN
notes: as m32, ECD of CD80; also called VH+VLprot (CD80); HEF + LB-CD80
[1]
  binding result: binds
[2]
  EC50 (read off the curve): ~8 ng/mL

B2: HFLA (antibody, human IgG4 S228P, kappa, V domains shown)
VH: EVQLVQSGAEVKKPGESLRISCKASGYSFTSYWVHWVRQMPGKGLEWMGNIDPSDSDTHYSPSFQGHVTLSVDKSISTAYLQLSSLKASDTAMYYCVRGGTGTMAYFAYWGQGTLVTVSS
VL: DVVMTQSPLSLPVTLGQPASISCRSSQSLVHSYGNTYLYWYQQRPGQSPRLLIYRVSNRFSGVPDRFSGSGSGTDFTLKISRVEAEDVGVYFCFQGTHVPYTFGGGTKVEIKR
notes: humanized 18D5 variant
[3]
  EC50: 4.61 ng/mL
[4]
  EC50: 5.1 ng/mL
[5]
  Kd: 0.217 nM
  koff: 0.000186 s⁻¹
  kon: 857000 M⁻¹ s⁻¹
[6]
  Kd: 25.8 nM
  koff: 0.00192 s⁻¹
  kon: 74500 M⁻¹ s⁻¹
[7]
  Kd: 47.6 nM
  koff: 0.0118 s⁻¹
  kon: 248000 M⁻¹ s⁻¹
[8]
  IC50: 146 ng/mL

B3: HCLB (antibody, human IgG4 S228P, kappa, V domains shown)
VH: B2 VH with Y106W
VL: B2 VL with Y41F, F92Y
notes: humanized 18D5 variant; also called humanized 18D5 variant HCLB
[3]
  EC50: 5.59 ng/mL

B4: HBLB (antibody, human IgG4 S228P, kappa, V domains shown)
VH: B2 VH with S61N, P62Q, S63K, Q65K, G66D, Y106W
VL: B2 VL with Y41F, F92Y
notes: humanized 18D5 variant; also called humanized 18D5 variant HBLB
[9]
  EC50: 2.95 ng/mL

B5: HELB (antibody, human IgG4 S228P, kappa, V domains shown)
VH: B2 VH with M104L, Y106W
VL: B2 VL with Y41F, F92Y
notes: humanized 18D5 variant; also called humanized 18D5 variant HELB
[3]
  EC50: 4.13 ng/mL

B6: HBLA (antibody, human IgG4 S228P, kappa, V domains shown)
VH: B2 VH with S61N, P62Q, S63K, Q65K, G66D, Y106W
VL: B2 VL
notes: humanized 18D5 variant; also called humanized 18D5 variant HBLA
[9]
  EC50: 2.68 ng/mL

B7: HEFLA (antibody, human IgG4 S228P, kappa, V domains shown)
VH: B2 VH with M104L
VL: B2 VL
notes: humanized 18D5 variant
[4]
  EC50: 7.1 ng/mL
[5]
  Kd: 0.264 nM
  koff: 0.000148 s⁻¹
  kon: 559000 M⁻¹ s⁻¹
[6]
  Kd: 12.4 nM
  koff: 0.00122 s⁻¹
  kon: 98300 M⁻¹ s⁻¹
[7]
  Kd: 52.4 nM
  koff: 0.0114 s⁻¹
  kon: 217000 M⁻¹ s⁻¹
[8]
  IC50: 191 ng/mL

B8: HALB (antibody, human IgG4 S228P, kappa, V domains shown)
VH: B2 VH with S28T, M48I, S61N, P62Q, S63K, Q65K, G66D, Y106W
VL: B2 VL with Y41F, F92Y
notes: humanized 18D5 variant; also called humanized 18D5 variant HALB
[9]
  EC50: 2.53 ng/mL

B9: HALA (antibody, human IgG4 S228P, kappa, V domains shown)
VH: B2 VH with S28T, M48I, S61N, P62Q, S63K, Q65K, G66D, Y106W
VL: B2 VL
notes: humanized 18D5 variant; also called humanized 18D5 variant HALA
[4]
  EC50: 3.9 ng/mL
[6]
  Kd: 6.4 nM
  koff: 0.00085 s⁻¹
  kon: 133000 M⁻¹ s⁻¹
[7]
  Kd: 46.1 nM
  koff: 0.00709 s⁻¹
  kon: 154000 M⁻¹ s⁻¹

B10: modified anti-SIRPa HEFLB antibody with ECD of OX40L on the light chain (antibody, human IgG4 S228P, kappa)
heavy: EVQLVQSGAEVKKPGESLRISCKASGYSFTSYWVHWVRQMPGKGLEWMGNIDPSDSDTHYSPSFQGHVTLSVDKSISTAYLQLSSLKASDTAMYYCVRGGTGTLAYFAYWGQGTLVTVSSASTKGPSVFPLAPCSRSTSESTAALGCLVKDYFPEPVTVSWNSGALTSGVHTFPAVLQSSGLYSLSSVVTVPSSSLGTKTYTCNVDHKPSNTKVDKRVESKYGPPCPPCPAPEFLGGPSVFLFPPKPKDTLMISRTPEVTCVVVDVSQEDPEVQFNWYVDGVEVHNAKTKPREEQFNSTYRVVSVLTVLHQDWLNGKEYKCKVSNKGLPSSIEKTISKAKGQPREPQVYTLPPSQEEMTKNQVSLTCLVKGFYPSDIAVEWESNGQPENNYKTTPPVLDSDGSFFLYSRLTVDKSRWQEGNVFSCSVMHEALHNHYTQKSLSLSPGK
light: DVVMTQSPLSLPVTLGQPASISCRSSQSLVHSYGNTYLYWFQQRPGQSPRLLIYRVSNRFSGVPDRFSGSGSGTDFTLKISRVEAEDVGVYYCFQGTHVPYTFGGGTKVEIKRTVAAPSVFIFPPSDEQLKSGTASVVCLLNNFYPREAKVQWKVDNALQSGNSQESVTEQDSKDSTYSLSSTLTLSKADYEKHKVYACEVTHQGLSSPVTKSFNRGECGGGGSGGGGSGGGGSQVSHRYPRIQSIKVQFTEYKKEKGFILTSQKEDEIMKVQNNSVIINCDGFYLISLKGYFSQEVNISLHYQKDEEPLFQLKKVRSVNSLMVASLTYKDKVYLNVTTDNTSLDDFHVNGGELILIHQNPGEFCVL
notes: as m32, ECD of OX40L; also called VH+VLprot (OX40L); HEF + LB-OX40L
[10]
  binding result: binds
[11]
  binding result: binds

B11: modified anti-SIRPa HEFLB antibody with ECD of CD80 on the heavy chain (antibody, human IgG4 S228P, kappa)
heavy: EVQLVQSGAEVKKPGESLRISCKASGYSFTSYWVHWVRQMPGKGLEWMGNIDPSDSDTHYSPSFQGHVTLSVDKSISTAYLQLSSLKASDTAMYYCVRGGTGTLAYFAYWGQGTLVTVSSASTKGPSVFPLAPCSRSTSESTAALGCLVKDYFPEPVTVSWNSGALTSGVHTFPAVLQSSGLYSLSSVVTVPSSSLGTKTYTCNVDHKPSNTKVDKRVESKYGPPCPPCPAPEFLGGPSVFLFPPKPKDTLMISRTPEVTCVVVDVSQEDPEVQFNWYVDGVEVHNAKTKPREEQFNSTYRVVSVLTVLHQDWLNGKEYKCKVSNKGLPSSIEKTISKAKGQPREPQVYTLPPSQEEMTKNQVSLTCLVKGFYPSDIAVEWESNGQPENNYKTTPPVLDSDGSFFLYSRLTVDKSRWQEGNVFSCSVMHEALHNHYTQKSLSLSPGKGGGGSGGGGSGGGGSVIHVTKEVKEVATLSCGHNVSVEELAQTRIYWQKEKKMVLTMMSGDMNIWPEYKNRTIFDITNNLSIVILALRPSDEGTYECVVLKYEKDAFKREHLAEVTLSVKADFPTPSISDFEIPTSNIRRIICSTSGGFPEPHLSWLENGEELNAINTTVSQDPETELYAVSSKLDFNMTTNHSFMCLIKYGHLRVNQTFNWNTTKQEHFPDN
light: DVVMTQSPLSLPVTLGQPASISCRSSQSLVHSYGNTYLYWFQQRPGQSPRLLIYRVSNRFSGVPDRFSGSGSGTDFTLKISRVEAEDVGVYYCFQGTHVPYTFGGGTKVEIKRTVAAPSVFIFPPSDEQLKSGTASVVCLLNNFYPREAKVQWKVDNALQSGNSQESVTEQDSKDSTYSLSSTLTLSKADYEKHKVYACEVTHQGLSSPVTKSFNRGEC
notes: as m25, ECD of CD80; also called VHprot+VL (CD80); VH-CD80
[1]
  binding result: binds
[2]
  EC50 (read off the curve): ~8 ng/mL

B12: modified anti-SIRPa HEFLB antibody with ECD of OX40L on the heavy chain (antibody, human IgG4 S228P, kappa)
heavy: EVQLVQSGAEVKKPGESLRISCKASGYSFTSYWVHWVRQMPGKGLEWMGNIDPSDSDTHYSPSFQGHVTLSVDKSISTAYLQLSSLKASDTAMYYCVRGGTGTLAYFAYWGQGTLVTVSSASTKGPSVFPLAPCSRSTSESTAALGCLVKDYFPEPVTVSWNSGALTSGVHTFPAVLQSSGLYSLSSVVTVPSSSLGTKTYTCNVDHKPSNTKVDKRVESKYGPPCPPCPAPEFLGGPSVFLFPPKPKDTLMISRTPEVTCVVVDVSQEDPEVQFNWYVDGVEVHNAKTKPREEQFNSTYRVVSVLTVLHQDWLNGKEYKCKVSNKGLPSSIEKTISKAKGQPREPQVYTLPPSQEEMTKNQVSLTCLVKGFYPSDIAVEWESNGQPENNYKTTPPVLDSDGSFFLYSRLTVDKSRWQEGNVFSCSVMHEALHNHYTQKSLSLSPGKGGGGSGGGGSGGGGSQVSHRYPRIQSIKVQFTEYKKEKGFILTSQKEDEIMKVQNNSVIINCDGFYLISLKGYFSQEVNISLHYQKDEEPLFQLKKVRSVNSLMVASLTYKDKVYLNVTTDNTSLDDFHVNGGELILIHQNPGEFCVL
light: B11 light
notes: as m25, ECD of OX40L; also called VHprot+VL (OX40L); HEF-OX40L + LB
[10]
  binding result: binds
[11]
  binding result: binds

Reference: patent publication US20210179728A1 (OSE IMMUNOTHERAPEUTICS, published 2021)
